The values below are quoted from earlier work in paper PMC5013049.

Data set [1] has as its target ExsE (Pseudomonas aeruginosa) (UniProt Q9I322). In words: ITC. In general terms: ITC needs no label: the signal is the heat of the interaction.
For data set [2], the target named is ExsD (Pseudomonas aeruginosa) (UniProt Q9I321). In words: ITC.
Chain of UniProt Q9I321 (Q9I321 whole entry): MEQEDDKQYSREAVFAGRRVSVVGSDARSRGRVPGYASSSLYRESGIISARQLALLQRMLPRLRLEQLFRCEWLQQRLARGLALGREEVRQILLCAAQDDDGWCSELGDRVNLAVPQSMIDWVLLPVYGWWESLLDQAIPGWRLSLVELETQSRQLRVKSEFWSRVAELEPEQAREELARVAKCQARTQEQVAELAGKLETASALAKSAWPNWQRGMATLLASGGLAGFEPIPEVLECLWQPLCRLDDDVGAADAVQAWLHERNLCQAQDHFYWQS

Chain of UniProt Q9I322 (Q9I322 whole entry): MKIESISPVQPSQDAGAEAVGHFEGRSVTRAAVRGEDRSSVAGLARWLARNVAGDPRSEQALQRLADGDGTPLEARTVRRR

By Kd is commonly meant the concentration at which binding is half-saturated. For ExsC (from UniProt P26995), the Kd in data set [1] is 1 nM; in data set [2], 18 nM.
